Paper PMC10131064 (The Journal of Biological Chemistry, 2023)
Changes are numbered by the printed parent chain.

Experiments:
Assay in all cases: SPR
[1] = molecular target: T1, human MDGA1 WT soluble ectodomain (residues 22-920, lacking the GPI anchor region), (His)6-tagged (human, UniProt Q8NFP4-1 22-920)
T1 sequence: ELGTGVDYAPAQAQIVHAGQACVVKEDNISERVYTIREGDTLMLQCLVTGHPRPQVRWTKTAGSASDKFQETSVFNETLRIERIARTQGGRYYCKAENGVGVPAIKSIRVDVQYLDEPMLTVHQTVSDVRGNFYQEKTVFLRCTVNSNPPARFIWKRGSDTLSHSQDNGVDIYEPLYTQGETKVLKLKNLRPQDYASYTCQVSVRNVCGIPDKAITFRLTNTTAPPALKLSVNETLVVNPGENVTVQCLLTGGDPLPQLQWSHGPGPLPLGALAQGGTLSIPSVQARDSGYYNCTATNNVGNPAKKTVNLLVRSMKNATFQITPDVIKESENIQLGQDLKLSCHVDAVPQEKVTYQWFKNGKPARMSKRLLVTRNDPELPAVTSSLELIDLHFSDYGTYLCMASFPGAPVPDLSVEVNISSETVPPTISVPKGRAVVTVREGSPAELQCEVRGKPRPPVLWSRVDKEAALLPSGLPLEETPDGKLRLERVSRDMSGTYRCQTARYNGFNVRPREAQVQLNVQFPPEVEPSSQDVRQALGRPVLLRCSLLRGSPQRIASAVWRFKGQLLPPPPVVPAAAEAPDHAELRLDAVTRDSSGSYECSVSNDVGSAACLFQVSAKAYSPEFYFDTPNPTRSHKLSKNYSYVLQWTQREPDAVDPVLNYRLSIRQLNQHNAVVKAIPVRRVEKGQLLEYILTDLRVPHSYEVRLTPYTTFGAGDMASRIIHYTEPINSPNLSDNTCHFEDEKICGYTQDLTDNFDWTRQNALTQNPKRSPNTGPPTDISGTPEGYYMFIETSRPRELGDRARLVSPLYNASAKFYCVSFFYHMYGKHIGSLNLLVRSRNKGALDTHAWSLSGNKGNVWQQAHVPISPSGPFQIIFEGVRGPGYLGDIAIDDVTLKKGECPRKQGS

[2] = molecular target: T2, human MDGA1 V314D soluble ectodomain, (His)6-tagged (human, UniProt Q8NFP4-1 22-920, V314D)
T2 sequence: T1 sequence with V300D

[3] = molecular target: T3, human MDGA1 I336D soluble ectodomain, (His)6-tagged (human, UniProt Q8NFP4-1 22-920, I336D)
T3 sequence: T1 sequence with I322D

[4] = molecular target: T4, human MDGA1 T135C/N313C soluble ectodomain, (His)6-tagged (human, UniProt Q8NFP4-1 22-920, T135C | N313C)
T4 sequence: T1 sequence with T121C, N299C

B1: extracellular domain of rat NLGN2 (residues V43-H612) with splice insert A (domain or fragment, UniProt Q62888-1 43-612, looked up)
chain: VVNTAYGRVRGVRRELNNEILGPVVQFLGVPYATPPLGARRFQPPEAPASWPGVRNATTLPPACPQNLHGALPAIMLPVWFTDNLEAAATYVQNQSEDCLYLNLYVPTEDGPLTKKRDEATLNPPDTDIRDSGKKPVMLFLHGGSYMEGTGNMFDGSVLAAYGNVIVATLNYRLGVLGFLSTGDQAAKGNYGLLDQIQALRWLSENIAHFGGDPERITIFGSGAGASCVNLLILSHHSEGLFQKAIAQSGTAISSWSVNYQPLKYTRLLAAKVGCDREDSTEAVECLRRKSSRELVDQDVQPARYHIAFGPVVDGDVVPDDPEILMQQGEFLNYDMLIGVNQGEGLKFVEDSAESEDGVSASAFDFTVSNFVDNLYGYPEGKDVLRETIKFMYTDWADRDNGEMRRKTLLALFTDHQWVAPAVATAKLHADYQSPVYFYTFYHHCQAEGRPEWADAAHGDELPYVFGVPMVGATDLFPCNFSKNDVMLSAVVMTYWTNFAKTGDPNQPVPQDTKFIHTKPNRFEEVVWSKFNSKEKQYLHIGLKPRVRDNYRANKVAFWLELVPHLHNLH
Q: What does the source list for B1?
A: Kd [1]: 3.4 nM; binding result [2]: binds; binding result [3]: binds; binding result [4]: binds
